From US20050014206A1, “Method of identifying compounds that specifically inhibit the anaphase promoting complex” (Boehringer Ingelhiem International GmbH, priority 2003, published 2005)
“Also recorded” adds a separate entry of the source.

Columns and labels:
[1] = biological target: T1, APC3 (Homo sapiens, UniProt P30260); test: Peptide binding assay (matrix-coupled peptides), APC3
T1 construct: HisHA; made in house; host or cells: Sf9 or Hi5 insect cells (baculovirus), used as lysate
Method: (§1) Synthetic peptides used in binding and inhibition assays were […] (CDC20 C-terminus; SEQ ID NO:2), […] (CDH1 C-terminus; SEQ ID NO:1), […] (CDC20 N-terminus; SEQ ID NO:10), and CAVWSLSSCKPGFGVD (control; SEQ ID NO:11).
(§2) Peptide interaction assays were carried out as described in Wendt, K. S., et al., Nat Struct Biol 8:784-8 (2001). Synthetic peptides (see above) were immobilized via N-terminal cysteine residues onto maleinimide-activated POROS matrix ([…]) in 0.1 M HEPES, pH 7.9 for 3 hours. After washing with slightly acidic buffers, 100 μg of the resulting matrix were incubated with insect cell lysates containing recombinant APC subunits, or with fractions from anion chromatography, in total volumes of […] of TBS/T pH 7.5. After stringent washing in TBS/T 0.5 M NaCl, samples were analyzed by SDS-PAGE and immunoblotted with 12CA5 anti-HA antibodies or antibodies against APC subunits.
(§3) To test if APC3 would also interact with the C-termini of CDH1 and its related activator CDC20, insect cell lysates containing recombinantly expressed APC3 were incubated with synthetic peptides coupled to a matrix through their N-terminus. After washing, peptide-bound material was analyzed by western blot. […] In budding yeast, which lacks APC7, they share Cdc27p as their closest homologue.
(§4) In order to exclude any non-specific effects caused by incorrect folding of recombinantly expressed proteins, an alternative source of APC subunits was used in the peptide binding assays. As described above, late-eluting fractions from the ReSource Q column contained considerable amounts of the TPR subunits APC3, APC6, and APC7, while other subunits were found in lower abundance (FIG. 10).

[2] = biological target: T2, APC6 (Homo sapiens, UniProt Q13042); test: Peptide binding assay (matrix-coupled peptides), APC6; settings: for binding of recombinant APC6 to matrix-coupled peptide: insect cell lysates, western blot
T2 construct: HisHA; made in house; host or cells: Sf9 or Hi5 insect cells (baculovirus), used as lysate
T2 sequence (Q13042 whole entry): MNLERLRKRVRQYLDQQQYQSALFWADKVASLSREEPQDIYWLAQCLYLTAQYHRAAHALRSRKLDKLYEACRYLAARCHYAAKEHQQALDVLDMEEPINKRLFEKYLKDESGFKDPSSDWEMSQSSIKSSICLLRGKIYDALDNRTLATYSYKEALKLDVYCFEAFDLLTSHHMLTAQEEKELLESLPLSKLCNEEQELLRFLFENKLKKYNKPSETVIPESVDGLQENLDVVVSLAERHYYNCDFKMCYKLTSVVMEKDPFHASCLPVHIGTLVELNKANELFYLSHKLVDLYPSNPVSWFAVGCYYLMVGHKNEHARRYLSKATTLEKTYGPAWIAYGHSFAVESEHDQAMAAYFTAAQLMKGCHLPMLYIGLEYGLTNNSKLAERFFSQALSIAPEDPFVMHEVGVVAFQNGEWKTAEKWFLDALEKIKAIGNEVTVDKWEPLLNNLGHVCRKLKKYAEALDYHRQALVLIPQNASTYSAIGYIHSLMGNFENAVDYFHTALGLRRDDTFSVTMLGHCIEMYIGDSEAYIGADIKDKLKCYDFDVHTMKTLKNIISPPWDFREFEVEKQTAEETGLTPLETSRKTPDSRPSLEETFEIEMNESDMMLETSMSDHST
Method: as §1, §2, §3, §4

[3] = biological target: T3, holo-APC (Homo sapiens, UniProt P30260+Q9UJX3); test: Peptide binding assay with holo-APC containing fractions; settings: APC-containing anion exchange fractions
T3 construct: endogenous in cells; host or cells: HeLa cells, Source15Q fractions eluting around 450 mM KCl
Method: as §1
Pellets from 5×10^9 logarithmically grown HeLa cells (4C, Belgium) were lysed in 20 mM TrisCl pH7.7, 150 mM KCl, 0.5 mM DTT, 0.1% Tween-20, Protease Inhibitor mix (Sigma) using a french press and cleared by 100,000×g centrifugation for 1 h. After filtration through a 0.45 μm filter, extracts were loaded onto a 60 ml Source15Q anion exchange column (Amersham) at 4 ml/min. The column was washed with 20 mM Tris-Cl pH7.7, 150 mM KCl, 0.5 mM DTT until a drop in A280 indicated the end of the flowthrough. Elution was carried out with a gradient from 150 mM to 600 mM KCl. […]
Peptide interaction assays were carried out as described in Wendt, K. S., et al., Nat Struct Biol 8:784-8 (2001). […] After stringent washing in TBS/T 0.5 M NaCl, samples were analyzed by SDS-PAGE and immunoblotted with 12CA5 anti-HA antibodies or antibodies against APC subunits.
It was tested if CDH1's C-terminus would be sufficient to interact with holo-APC. For this, APC-containing fractions were incubated with the peptide matrix and analyzed for binding of APC by detection of all subunits. […]

[4] = biological target: T4, APC activation by CDH1 (Homo sapiens, UniProt P30260+Q9UJX3); test: In vitro ubiquitination assay with [125I]-labelled cyclin B as substrate; format: biochemical; settings: APC loaded with recombinant CDH1 in presence of peptide at 1 mg/ml, cyclin B fragment substrate
T4 construct: endogenous in cells; host or cells: APC immunopurified from HeLa cell extracts; CDH1 and cyclin B fragment recombinant
Method: (§5) Immunopurified holo-APC or subcomplexes were washed and incubated with purified recombinant CDH1 (0.5-1.0 μg per 10 μl bead volume) in TBS/T, or with insect cell lysates in TBS/T containing recombinant CDH1 proteins as indicated. Peptides for competition were used at 1 mg/ml, with the addition of 0.5 mM DTT to the buffer. Subsequently, bead-bound complexes were washed 3× with TBS/T and immunoblotted for binding of CDH1 or used in ubiquitination assays. In vitro ubiquitination reactions were performed as described (Kramer, E. R., et al., Curr Biol 8:1207-10 (1998)). Securin-myc-his substrate was detected by immunoblotting with monoclonal anti-Myc 9E10 antibodies. Alternatively, an iodinated N-terminal recombinant fragment of sea urchin cyclin B (amino acids 13-110) was used and visualized by autoradiography (Gieffers, C., et al., Mol Cell 7:907-13 (2001)).
(§6) What are the mechanistic consequences of the observed interactions between IR tail peptides and APC subunits? To address this, it was tested if the peptides would influence APC activity in in vitro ubiquitination assays. Immunopurified APC was loaded with recombinant CDH1 in the presence or absence of IR-tail or control peptides, washed, and used to ubiquitinate a radioactively labeled fragment of cyclin B (FIG. 6B). […] In contrast, an N-terminal CDC20 peptide had no effect on APC activation.

[5] = biological target: T5, APC5 (Homo sapiens, UniProt Q9UJX4); test: Peptide binding assay (matrix-coupled peptides), APC5; settings: insect cell lysates; western blot
T5 construct: HisHA; made in house; host or cells: Sf9 or Hi5 insect cells (baculovirus), used as lysate
T5 sequence (Q9UJX4 whole entry): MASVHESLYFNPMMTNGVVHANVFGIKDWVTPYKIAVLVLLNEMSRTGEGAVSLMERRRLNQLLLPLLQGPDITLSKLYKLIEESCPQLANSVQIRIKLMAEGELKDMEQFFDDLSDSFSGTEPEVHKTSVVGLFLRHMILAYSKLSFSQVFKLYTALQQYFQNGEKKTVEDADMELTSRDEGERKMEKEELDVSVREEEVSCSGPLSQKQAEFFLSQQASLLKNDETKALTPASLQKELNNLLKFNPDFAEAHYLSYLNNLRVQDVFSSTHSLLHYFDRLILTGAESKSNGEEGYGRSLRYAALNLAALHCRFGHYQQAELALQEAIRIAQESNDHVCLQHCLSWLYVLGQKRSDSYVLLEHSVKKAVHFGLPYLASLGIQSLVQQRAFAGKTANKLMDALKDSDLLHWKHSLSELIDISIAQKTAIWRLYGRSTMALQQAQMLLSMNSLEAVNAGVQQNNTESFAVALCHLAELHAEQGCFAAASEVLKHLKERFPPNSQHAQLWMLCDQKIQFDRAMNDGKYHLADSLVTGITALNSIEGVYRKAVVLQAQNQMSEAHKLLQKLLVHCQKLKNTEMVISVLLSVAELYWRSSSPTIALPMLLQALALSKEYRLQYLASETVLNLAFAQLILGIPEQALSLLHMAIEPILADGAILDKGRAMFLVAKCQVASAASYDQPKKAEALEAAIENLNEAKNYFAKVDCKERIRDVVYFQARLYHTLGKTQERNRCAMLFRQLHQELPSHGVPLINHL
Method: as §1, §2, §3

[6] = biological target: T6, CDC26 (Homo sapiens, UniProt Q8NHZ8); test: Peptide binding assay (matrix-coupled peptides), CDC26; settings: late-eluting Q column fractions from HeLa extracts; listed as CDH1 peptide
T6 construct: endogenous in cells; host or cells: HeLa cells, late-eluting Source15Q fractions
T6 sequence (Q8NHZ8 whole entry): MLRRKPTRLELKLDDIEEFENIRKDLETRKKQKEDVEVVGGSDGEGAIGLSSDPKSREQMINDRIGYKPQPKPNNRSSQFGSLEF
Method: as §1, §2, §4

[7] = biological target: T7, APC7 (Homo sapiens, UniProt Q9UJX3); test: Peptide binding assay (matrix-coupled peptides), APC7 and APC7 fragments; settings: for binding of recombinant APC7 to matrix-coupled peptide: recombinant APC7 in insect cell lysates, western blot
T7 construct: HisHA; made in house; host or cells: Sf9 or Hi5 insect cells (baculovirus), used as lysate
T7 sequence (Q9UJX3 whole entry, the tested form may be a part): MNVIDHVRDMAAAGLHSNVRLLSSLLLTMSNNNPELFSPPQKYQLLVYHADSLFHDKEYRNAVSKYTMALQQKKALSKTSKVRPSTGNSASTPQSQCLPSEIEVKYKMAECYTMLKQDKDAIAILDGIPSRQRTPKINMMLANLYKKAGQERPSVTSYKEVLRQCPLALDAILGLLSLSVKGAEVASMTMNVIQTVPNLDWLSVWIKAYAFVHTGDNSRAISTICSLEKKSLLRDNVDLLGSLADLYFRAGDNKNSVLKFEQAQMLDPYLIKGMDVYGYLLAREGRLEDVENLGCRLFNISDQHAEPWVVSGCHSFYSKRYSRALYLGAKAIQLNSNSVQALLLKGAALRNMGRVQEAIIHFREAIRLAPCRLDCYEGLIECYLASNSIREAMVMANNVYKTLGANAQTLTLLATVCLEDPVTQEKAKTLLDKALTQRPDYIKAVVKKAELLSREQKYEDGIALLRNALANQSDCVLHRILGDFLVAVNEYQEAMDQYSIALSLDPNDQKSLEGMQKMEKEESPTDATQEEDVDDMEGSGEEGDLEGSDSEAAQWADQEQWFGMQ
Method: as §1, §2, §3, §4
Lastly, the region in APC7 responsible for binding to IR peptides was mapped.

[8] = biological target: T8, binding of recombinant CDH1 to APC (Homo sapiens, UniProt P30260+Q9UJX3); test: CDH1 binding assay with competing peptides; settings: peptides at 1 mg/ml; for effect of peptide on CDH1 binding to APC: quantitative immunoblotting with radiolabeled antibodies
T8 construct: endogenous in cells; host or cells: APC immunopurified from HeLa cell extracts; CDH1 recombinant, made in house
Method: as §5, §6

[9] = biological target: T9, APC8 (Homo sapiens, UniProt Q9UJX2); test: Peptide binding assay (matrix-coupled peptides), APC8; settings: insect cell lysates; western blot
T9 construct: HisHA; made in house; host or cells: Sf9 or Hi5 insect cells (baculovirus), used as lysate
T9 sequence (Q9UJX2 whole entry): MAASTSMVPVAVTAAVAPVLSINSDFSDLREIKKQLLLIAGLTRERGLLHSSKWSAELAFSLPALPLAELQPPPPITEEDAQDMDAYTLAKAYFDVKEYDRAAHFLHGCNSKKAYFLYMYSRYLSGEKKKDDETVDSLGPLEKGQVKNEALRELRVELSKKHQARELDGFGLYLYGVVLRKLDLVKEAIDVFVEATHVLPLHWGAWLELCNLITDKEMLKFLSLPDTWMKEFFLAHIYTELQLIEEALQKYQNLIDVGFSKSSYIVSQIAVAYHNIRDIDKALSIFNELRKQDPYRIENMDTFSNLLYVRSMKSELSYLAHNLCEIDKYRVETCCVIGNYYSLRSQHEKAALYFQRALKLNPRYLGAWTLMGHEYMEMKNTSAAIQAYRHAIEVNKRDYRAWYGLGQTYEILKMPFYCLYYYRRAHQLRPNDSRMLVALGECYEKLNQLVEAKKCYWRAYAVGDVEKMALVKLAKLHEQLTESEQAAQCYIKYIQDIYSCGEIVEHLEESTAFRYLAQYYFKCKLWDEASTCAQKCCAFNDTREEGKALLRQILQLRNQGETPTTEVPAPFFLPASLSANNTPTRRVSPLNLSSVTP
Method: as §1, §2, §3

[10] = biological target: T10, recombinant HisHA-tagged APC8 (UniProt Q9UJX2 1-597); test: matrix-coupled peptide pull-down from insect cell lysate, western blot
T10 construct: Expressed with baculovirus in insect cells; used as lysate; also called APC8/CDC23; not shown: HisHA tag
T10 sequence (Q9UJX2 whole entry): as above
Method: as §2
(§7) To test if APC3 would also interact with the C-termini of CDH1 and its related activator CDC20, insect cell lysates containing recombinantly expressed APC3 were incubated with synthetic peptides coupled to a matrix through their N-terminus. After washing, peptide-bound material was analyzed by western blot. […] APC7, on the other hand, interacted strongly with the CDH1 C-terminus and moderately with CDC20's C-terminus (FIG. 5A), in a manner very similar to APC3. […] In budding yeast, which lacks APC7, they share Cdc27p as their closest homologue.

[11] = biological target: T11, recombinant HisHA-tagged APC5 (UniProt Q9UJX4 1-755); test: as above
T11 construct: Expressed with baculovirus in insect cells; used as lysate; not shown: HisHA tag
T11 sequence (Q9UJX4 whole entry): as the sequence (Q9UJX4 whole entry) above
Method: as §2, §7

[12] = biological target: native CDC26 from late-eluting anion exchange fractions of HeLa extract (human, UniProt Q8NHZ8 1-85); test: matrix-coupled peptide pull-down from late-eluting Q column fractions, western blot
Chain of native CDC26 from late-eluting anion exchange fractions of HeLa extract (Q8NHZ8 whole entry): as the sequence (Q8NHZ8 whole entry) above
Method: as §2, §4

[13] = recombinant APC3 in insect cell lysates, western blot
[14] = late-eluting Q column fractions from HeLa extracts
[15] = listed as C-terminal CDH1 peptide
[16] = listed as C-terminal peptide of CDH1
[17] = listed as C-terminal CDC20 peptide

T1 sequence (P30260 whole entry): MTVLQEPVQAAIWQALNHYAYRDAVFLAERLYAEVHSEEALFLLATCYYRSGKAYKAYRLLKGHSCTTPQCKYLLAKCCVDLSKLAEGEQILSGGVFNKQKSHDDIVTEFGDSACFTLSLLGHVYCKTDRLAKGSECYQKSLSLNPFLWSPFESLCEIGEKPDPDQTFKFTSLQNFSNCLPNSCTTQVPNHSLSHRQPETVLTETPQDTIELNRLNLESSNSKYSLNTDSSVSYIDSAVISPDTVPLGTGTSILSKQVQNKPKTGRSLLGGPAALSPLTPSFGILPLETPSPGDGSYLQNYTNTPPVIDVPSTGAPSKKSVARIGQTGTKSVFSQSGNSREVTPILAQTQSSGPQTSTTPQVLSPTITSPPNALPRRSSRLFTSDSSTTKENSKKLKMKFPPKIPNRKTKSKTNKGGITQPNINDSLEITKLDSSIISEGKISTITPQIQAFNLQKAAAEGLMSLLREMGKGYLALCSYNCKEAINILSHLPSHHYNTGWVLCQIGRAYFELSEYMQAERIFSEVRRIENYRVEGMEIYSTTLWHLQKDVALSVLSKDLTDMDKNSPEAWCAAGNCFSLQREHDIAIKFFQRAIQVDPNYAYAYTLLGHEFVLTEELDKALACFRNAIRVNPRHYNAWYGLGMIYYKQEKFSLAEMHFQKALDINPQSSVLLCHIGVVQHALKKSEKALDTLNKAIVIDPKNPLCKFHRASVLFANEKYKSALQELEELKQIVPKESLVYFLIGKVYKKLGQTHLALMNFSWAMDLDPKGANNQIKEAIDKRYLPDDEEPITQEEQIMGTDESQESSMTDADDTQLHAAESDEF

CAVWSLSSCKPGFGVD (Control peptide) [reference compound]
binding of recombinant APC3 to matrix-coupled peptide [1, 13]: did not bind
binding of recombinant APC6 to matrix-coupled peptide [2]: low amounts
binding of holo-APC (all known subunits) to peptide matrix [3]: not

CESDLHSLLQLDAPIPNAPPARW (listed as Homo sapiens) [N-terminal CDC20 peptide, synthetic peptide of the CDC20 N-terminus used as control, reference compound]
effect of peptide on APC activation (ubiquitination activity) [4]: no effect

CFSKTRSTKESVSVLNLFTRIR (listed as Homo sapiens) [CDH1 C-terminal peptide, IR peptide; authentic human CDH1 C-terminus]
binding of native APC3 to peptide matrix [1, 14]: significantly retained
binding of recombinant APC3 to matrix-coupled peptide [1, 13]: even stronger binding
binding of recombinant APC5 to matrix-coupled peptide [5]: interacted with neither
binding of CDC26 to peptide matrix [6]: no binding at all; also recorded: did not bind
binding of native APC7 to peptide matrix [7, 14]: significantly retained
binding of recombinant APC7 to matrix-coupled peptide [7]: interacted strongly
inhibitory effect compared with the CDC20 C-terminal peptide ([8]; comparison of the two C-terminal peptides): stronger effect
effect of peptide on CDH1 binding to APC [8, 15]: inhibit
effect of peptide on CDH1 binding to APC [8, 16]: diminished binding of CDH1
effect of peptide on APC activation (ubiquitination activity) [4, 15]: inhibit
effect of peptide on APC activation (ubiquitination activity) [4, 16]: blocked APC activation efficiently
binding of recombinant APC6 to matrix-coupled peptide [2]: bound only in low amounts
binding of native APC6 to peptide matrix ([2]; late-eluting Q column fractions from HeLa extracts, listed as CDH1 peptide): did not bind
binding of holo-APC (all known subunits) to peptide matrix [3]: strongly enriched
binding of recombinant APC8 to matrix-coupled peptide [9]: did not bind

CLRREREKASTSKSSLIHQGIR (listed as Homo sapiens) [C-terminal peptide of CDC20, IR peptide; authentic human CDC20 C-terminus]
input APC3 bound to matrix-coupled peptide ([1]; recombinant APC3 in insect cell lysates, western blot, % of input): about 10%
binding of recombinant APC5 to matrix-coupled peptide [5]: interacted with neither
binding of recombinant APC7 to matrix-coupled peptide [7]: moderately
effect of peptide on CDH1 binding to APC [8]: diminished binding of CDH1
effect of peptide on CDH1 binding to APC [8, 17]: inhibit
effect of peptide on APC activation (ubiquitination activity) [4]: blocked APC activation efficiently
effect of peptide on APC activation (ubiquitination activity) [4, 17]: inhibit
binding of recombinant APC6 to matrix-coupled peptide [2]: bound only in low amounts
binding of recombinant APC8 to matrix-coupled peptide [9]: did not bind

B1: CDC20 C-terminal peptide CLRREREKASTSKSSLIHQGIR (peptide)
peptide: CLRREREKASTSKSSLIHQGIR
modifications: in the peptide binding assays immobilized via the N-terminal cysteine onto maleinimide-activated POROS matrix; free peptide in the competition assays
notes: Synthetic peptide; also called CDC20 C-terminus; CDC20 peptide
binding result [10]: no binding
binding result [11]: no binding

B2: CDH1 C-terminal peptide CFSKTRSTKESVSVLNLFTRIR (peptide)
peptide: CFSKTRSTKESVSVLNLFTRIR
modifications: in the peptide binding assays immobilized via the N-terminal cysteine onto maleinimide-activated POROS matrix; free peptide in the competition assays
notes: Synthetic peptide; also called CDH1 C-terminus; CDH1 peptide
binding result [12]: no binding
binding result [10]: no binding
binding result [11]: no binding
